“And” between values parts separate entries of the source, which are not always exact repeats. Equal entries are not always repeated.
Assays:
[1] = target: the molecule itself; assay: SDS-PAGE under nondenaturing conditions with Western blot; A549 cells untreated or treated with 1 mM NiSO4 for two days; total lysates and nuclear extracts; Western blot with anti-NDRG1
[2] = target: the molecule itself; assay: SEC-MALS; SEC-MALS-QELS; hNDRG1 300 uL at 140 uM on Superdex 200 10/300 GL; 20 mM HEPES pH 7.5, 150 mM NaCl, 1 mM TCEP; room temperature, 0.5 mL/min; without or with Ni(II); SEC also run with 10 mM DTT; monomer, dimer and tetramer in equilibrium
[3] = target: the molecule itself; assay: SDS-PAGE under nondenaturing conditions with Western blot; HeLa cells untreated or treated with 1 mM NiSO4 for 24 h; lysed under nondenaturing conditions; lysates in native sample buffer; blot with an antibody against the N-terminal region of NDRG1

B1: endogenous hNDRG1 in A549 cells (natural protein)
chain: not shown
notes: human NDRG1, endogenous protein of the lung carcinoma-derived A549 cells, detected by Western blot with anti-NDRG1; source: endogenous, A549 lysate
- stoichiometry N [1]: 4

B2: full-length human NDRG1 (N-terminal Strep-tagged, recombinant) (natural protein)
chain: not shown
notes: No cleavage of the tag is described for the full-length protein; also called hNDRG1; N-myc downstream-regulated gene 1 protein; source: E. coli BL21-CodonPlus (DE3) RiL, purified (StrepTrap HP, Superdex 200)
- stoichiometry N [2]: 4 and 2

B3: endogenous hNDRG1 in HeLa cells (natural protein)
chain: not shown
notes: human NDRG1, endogenous protein of HeLa cells, detected with an antibody against the N-terminal region of NDRG1; source: endogenous, HeLa lysate
- stoichiometry N [3]: 2 and 4

Source: article PMC9496542, “The Ni(II)-Binding Activity of the Intrinsically Disordered Region of Human NDRG1, a Protein Involved in Cancer Development” (Biomolecules, 2022)
